Measured values reported in US20260015418A1.

Target: human 4-1BB on Jurkat cells (Promega) (human) (UniProt Q07011)
Assay: cell-based or functional assay

Chain of human 4-1BB on Jurkat cells (Promega) (human) (Q07011 24-255): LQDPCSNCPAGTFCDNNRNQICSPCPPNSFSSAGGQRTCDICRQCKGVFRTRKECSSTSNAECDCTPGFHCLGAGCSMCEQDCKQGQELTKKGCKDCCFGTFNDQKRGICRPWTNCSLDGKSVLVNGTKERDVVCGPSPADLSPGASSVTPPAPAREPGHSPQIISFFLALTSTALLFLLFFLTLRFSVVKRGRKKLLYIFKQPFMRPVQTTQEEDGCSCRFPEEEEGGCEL

- EC50 (nM), 4-1BB NFκB luciferase reporter bioassay, CHO-hROR1 100%: 0.235 nM
Substance: Urelumab (BMS-663513) (antibody)
